Measurements as given in publication PMC10462110 (bioRxiv, 2023).
Where two headings read alike, the source gives them in different places. Where no end group is shown, it is not given here. [ ]: non-standard residue; d: D form. pS = N[C@@H](COP(=O)(O)O)C(=O)O

Legend:
[1] = target: Recombinant human CHIP (C-terminus of Hsc70 interacting protein; STUB1) (human) (UniProt Q9UNE7); assay: ELISA
[2] = target: GFP-tagged tauC3 S416E, doxycycline-inducible in HEK293 Flp-In T-REx cells; assay: co-IP
[3] = target: CHIP, NanoBiT fusion expressed in HEK293T cells (UniProt Q9UNE7); assay: split reporter
CHIP [4] = target: CHIP (UniProt Q9UNE7); assay: co-IP with anti-Tau-5, CHIP blot; conditions: reference: GFP-tauC3; sites S416
[5] = target: Recombinant human CHIP (C-terminus of Hsc70 interacting protein; STUB1) (human) (UniProt Q9UNE7); assay: ELISA; remark: listed apart in the source
CHIP [6] = target: CHIP (UniProt Q9UNE7); assay: differential scanning fluorimetry of CHIP; conditions: reference: WT peptide; sites S416
[7] = target: T1, Recombinant human CHIP (C-terminus of Hsc70 interacting protein; STUB1) (human, UniProt Q9UNE7 1-303); assay: fluorescence polarisation
T1 sequence (looked up): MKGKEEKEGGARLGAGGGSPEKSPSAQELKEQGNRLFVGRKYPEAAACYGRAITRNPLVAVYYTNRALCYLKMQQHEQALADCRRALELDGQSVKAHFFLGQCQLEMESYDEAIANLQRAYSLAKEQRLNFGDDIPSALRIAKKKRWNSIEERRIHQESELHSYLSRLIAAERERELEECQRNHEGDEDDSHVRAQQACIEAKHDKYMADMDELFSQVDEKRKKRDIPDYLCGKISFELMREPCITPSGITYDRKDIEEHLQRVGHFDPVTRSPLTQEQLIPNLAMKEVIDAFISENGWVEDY

CHIP D134A [8] = target: T2, CHIP D134A (human, UniProt Q9UNE7 1-303, D134A); assay: fluorescence polarisation
T2 sequence (looked up): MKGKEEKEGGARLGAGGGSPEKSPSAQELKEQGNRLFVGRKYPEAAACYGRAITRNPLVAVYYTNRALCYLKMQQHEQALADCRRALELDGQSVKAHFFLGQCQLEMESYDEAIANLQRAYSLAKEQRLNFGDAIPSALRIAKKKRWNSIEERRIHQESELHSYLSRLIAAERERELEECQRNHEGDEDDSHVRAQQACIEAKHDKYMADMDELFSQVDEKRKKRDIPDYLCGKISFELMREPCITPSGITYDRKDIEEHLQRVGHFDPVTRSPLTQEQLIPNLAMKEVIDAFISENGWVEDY

CHIP F131A = target: T3, CHIP F131A (human, UniProt Q9UNE7 1-303, F131A); assay: differential scanning fluorimetry
T3 sequence (looked up): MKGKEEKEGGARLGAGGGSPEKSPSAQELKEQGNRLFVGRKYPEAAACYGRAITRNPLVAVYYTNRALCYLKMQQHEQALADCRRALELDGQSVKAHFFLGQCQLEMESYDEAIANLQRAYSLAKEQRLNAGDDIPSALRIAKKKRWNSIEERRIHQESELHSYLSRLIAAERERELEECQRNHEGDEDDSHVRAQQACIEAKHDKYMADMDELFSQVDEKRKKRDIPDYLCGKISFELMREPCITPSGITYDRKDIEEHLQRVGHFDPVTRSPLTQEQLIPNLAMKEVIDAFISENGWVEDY

CHIP D134A [9] = target: T2, CHIP D134A; assay: differential scanning fluorimetry

tauC3 S416E (purified protein) (domain or fragment)
Kd [1]: 780 nM

endogenous CHIP (from UniProt Q9UNE7 1-303) (enzyme)
relative amount of CHIP bound (normalized to tauC3) [2]: 0.55

tauC3, NanoBiT fusion expressed in HEK293T cells (domain or fragment)
fold binding over FL tau [3]: 5 fold

tau (MAPT); tauC3 proteoform tauC3, C-terminus at D421 (from UniProt P10636-8) GFP-tauC3 S416E
other: relative CHIP bound, normalised to tauC3 (CHIP [4]): 0.55

tauC3 (unmodified, produced from E. coli) (domain or fragment)
Kd [5]: 190 nM
Kd [1]: 90 nM

natively phosphorylated tauC3 (p.tauC3) from Sf9 insect cells (domain or fragment)
Kd [5]: 700 nM

tau (MAPT); tauC3 proteoform C-terminal 10-mer ending at D421 (from UniProt P10636-8) S416E peptide (…)
other: CHIP apparent Tm (CHIP [6]): weaker; reference 48.81 ± 0.11

Ac-SSTGSIDMVD-OH [acetylated 10-mer peptide corresponding to the tauC3 C-terminus (Ac-SSTGSIDMVD-OH)]
Ki [7]: 150 ± 20 nM
Ki (CHIP D134A [8]): 5570 ± 340 nM
binding result (CHIP F131A): binds

Ac-SSTGEIDMVD [pS416 phosphomimetic 10-mer tauC3 peptide (SSTGEIDMVD)]
Ki [7]: 2410 ± 330 nM
binding result (CHIP D134A [9]): binds
binding result (CHIP F131A): binds

SSTG[pS]IDMVD [tauC3 pS416 10-mer peptide]
Ki [7]: 1010 ± 990 nM
Ki (CHIP D134A [8]): 1840 ± 230 nM
